Results from PMC9872521.

Substrate: NCCc1ccc(O)c(O)c1
Assay: cells, lysate or membranes
Conditions: sodium inward-facing conformation favors substrates

B1: human dopamine transporter (hDAT) (Homo sapiens) (protein)
chain: MSKSKCSVGLMSSVVAPAKEPNAVGPKEVELILVKEQNGVQLTSSTLTNPRQSPVEAQDRETWGKKIDFLLSVIGFAVDLANVWRFPYLCYKNGGGAFLVPYLLFMVIAGMPLFYMELALGQFNREGAAGVWKICPILKGVGFTVILISLYVGFFYNVIIAWALHYLFSSFTTELPWIHCNNSWNSPNCSDAHPGDSSGDSSGLNDTFGTTPAAEYFERGVLHLHQSHGIDDLGPPRWQLTACLVLVIVLLYFSLWKGVKTSGKVVWITATMPYVVLTALLLRGVTLPGAIDGIRAYLSVDFYRLCEASVWIDAATQVCFSLGVGFGVLIAFSSYNKFTNNCYRDAIVTTSINSLTSFSSGFVVFSFLGYMAQKHSVPIGDVAKDGPGLIFIIYPEAIATLPLSSAWAVVFFIMLLTLGIDSAMGGMESVITGLIDEFQLLHRHRELFTLFIVLATFLLSLFCVTNGGIYVFTLLDHFAAGTSILFGVLIEAIGVAWFYGVGQFSDDIQQMTGQRPSLYWRLCWKLVSPCFLLFVVVVSIVTFRPPHYGAYIFPDWANALGWVIATSSMAMVPIYAAYKFCSLPGSFREKLAYAIAPEKDRELVDRGEVRQFTLRHWLKV
**Q.** With B1 as the protein, how does the Km read?
**A.** Its Km is 2.31 µM.
